Assay [1] concerns the target SARS-CoV-2 Omicron (B.1.1.529) spike protein RBD, His-tagged (SARS-CoV-2 Omicron (B.1.1.529)) (UniProt P0DTC2). Briefly: SPR. Background: SPR reads the build-up and loss of mass on a sensor chip optically.
The target of assay [2] is SARS-CoV-2 Omicron (B.1.1.529) spike protein, plate-bound (MSD V-PLEX) (SARS-CoV-2 Omicron (B.1.1.529)) (UniProt P0DTC2).

As to casirivimab (REGN10933) (antibody), the dissociation constant Kd (commonly the concentration at which binding is half-saturated) in assay [1] amounted to 1200 nM.

Consider “REGEN-COV mAb cocktail (casirivimab and imdevimab at 1:1 molar ratio)”, for which, in assay [2], the IC50 (in general, the concentration that inhibits the measured activity by half) is 13 nM.

The record behind these values is PMC10215022.
